# Laboratory results reported in publication PMC10699647, “Structural basis of G protein–Coupled receptor CMKLR1 activation and signaling induced by a chemerin-derived agonist” (PLOS Biology, 2023).
# B1: IL-10: 10 ng/ml IL-10 supplement used as M2 reference (protein, UniProt P22301 19-178, looked up)
# Interleukin-10: SPGQGTQSENSCTHFPGNLPNMLRDLRDAFSRVKTFFQMKDQLDNLLLKESLLEDFKGYLGCQALSEMIQFYLEEVMPQAENQDPDIKAHVNSLGENLKTLRLRLRRCHRFLPCENKSKAVEQVKNAFNKLQEKGIYKAMSEFDIFINYIEAYMTMKIRN
# Experiments:
# [1] = tested on: CMKLR1; details: cited from earlier work
# From the text: The apparent contradictory functional roles of CMKLR1 in inflammation may be associated with the spatiotemporal regulation of the inflammation processes in cells. It is possible that in the early stage of inflammation, the CMKLR1 signaling is mainly pro-inflammatory by promoting chemotaxis and activation of DCs and macrophages, whereas at the late stage of inflammation, CMKLR1 activation can induce pro-resolving pathways to dampen inflammation. Another possibility for the differing effects of CMKLR1 signaling on inflammation is that different chemerin isoforms may activate CMKLR1 to induce dis ... || The potential roles of CMKLR1 signaling in inflammation may provide promising new opportunities for developing anti-inflammatory drugs. […] Nevertheless, the only commercially a ...
# [2] = tested on: primary human macrophages; test: Macrophage differentiation assay, surface markers by flow cytometry (MFI fold-change); details: 72 hours, 10 ng/mL (each), vs M0, n = 4 donors
# Method: Monocytes were enriched from human PBMC by CD14 beads positive selection (Miltenyi Biotec) and cultured in IMDM supplanted with 10% human AB serum (Omega Scientific, Cat# HS-20) for 7 days for them to differentiate to macrophages.
# Differentiated macrophages were then replated to low-bind plate at 0.15 million cells per 24-well plate, in 500 μl medium overnight before stimulated with various condition. Human macrophage medium was used as M0 reference culture condition, while 10 ng/ml IFNg plus 10 ng/ml LPS supplement were used as M1 reference, and 10 ng/ml IL-10 supplement used as M2 reference. […] Data were acquired on Cytek Aurora flowcytometry, analysis on Flowjo. MFI quantifications were normalized to M0 condition and statistically analyzed by 2-way ANOVA, with Dunnett’s multiple comparisons test; all groups were pair analyzed with M0 group as reference.
molecule,measurement,setting,value
C[N+](C)(C)CCC(=O)c1cccc2ccccc12.[I-] [α-NETA],potency against CMKLR1,"[1]; antagonist, ref [30]",low micromolar potency
"chemerin15: synthetic peptide corresponding to the 141–155 amino acid segment of chemerin (AGEDPHSFYFPGQFA; UniProt Q99969 141-155, looked up, fragment)",agonism and anti-inflammatory effects,"[1]; CMKLR1, ref [9]",stable agonists of CMKLR1 that induce anti-inflammatory effects
B1,CD86 expression in words,[2],down-regulation
same,CD163 expression in words,[2],up-regulation
same,CD206 expression in words,[2],up-regulation
